Earlier results on two substances are cited in paper PMC3667669.

Data set [1] has as its target Cdc42 (Homo sapiens) (UniProt P60953).
For data set [2] the target is unchanged. The source holds these as a separate data set.

Like-named read-outs stand apart in the source and are kept apart here.

Sequence of Cdc42 (Homo sapiens) (P60953 1-188): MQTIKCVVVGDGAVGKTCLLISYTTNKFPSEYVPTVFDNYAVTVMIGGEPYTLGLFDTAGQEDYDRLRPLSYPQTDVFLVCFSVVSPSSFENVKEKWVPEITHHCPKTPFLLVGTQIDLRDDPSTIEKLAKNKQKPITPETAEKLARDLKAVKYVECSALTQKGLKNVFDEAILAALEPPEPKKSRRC
Sequence of CBD fragment CBD (P42768 201-321): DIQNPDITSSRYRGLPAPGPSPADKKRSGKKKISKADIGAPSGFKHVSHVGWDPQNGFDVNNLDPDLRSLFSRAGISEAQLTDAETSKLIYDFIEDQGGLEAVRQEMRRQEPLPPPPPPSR
Sequence of mero221-CBD CBD (P42768 201-321): as above

For CBD fragment CBD (from UniProt P42768), the dissociation constant Kd with Cdc42 (Homo sapiens) [1] was 77 nM.

For the substance mero221-CBD CBD (from UniProt P42768), the Kd in the data set with Cdc42 (Homo sapiens) [2] is 150 nM.

As a reminder, the Kd is a measure of binding affinity in units of concentration.
